The values that follow come from patent publication US20220267475A1.

Experiment [1] addresses CD47-expressing CHO-K1 cells (UniProt Q08722). Description: flow cytometry. A general note: A flow cytometer gives signals particle by particle.
Experiment [2] has as its target TIGIT-expressing CHO-K1 cells (UniProt Q495A1). Description: flow cytometry.

Chain of TIGIT-expressing CHO-K1 cells (Q495A1 22-244): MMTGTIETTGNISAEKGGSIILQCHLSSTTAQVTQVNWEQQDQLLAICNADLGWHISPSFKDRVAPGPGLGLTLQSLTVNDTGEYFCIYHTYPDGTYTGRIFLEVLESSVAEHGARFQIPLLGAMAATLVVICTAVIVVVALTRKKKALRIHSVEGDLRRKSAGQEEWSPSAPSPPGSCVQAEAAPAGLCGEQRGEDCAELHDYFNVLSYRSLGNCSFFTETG
Chain of CD47-expressing CHO-K1 cells (Q08722 19-323): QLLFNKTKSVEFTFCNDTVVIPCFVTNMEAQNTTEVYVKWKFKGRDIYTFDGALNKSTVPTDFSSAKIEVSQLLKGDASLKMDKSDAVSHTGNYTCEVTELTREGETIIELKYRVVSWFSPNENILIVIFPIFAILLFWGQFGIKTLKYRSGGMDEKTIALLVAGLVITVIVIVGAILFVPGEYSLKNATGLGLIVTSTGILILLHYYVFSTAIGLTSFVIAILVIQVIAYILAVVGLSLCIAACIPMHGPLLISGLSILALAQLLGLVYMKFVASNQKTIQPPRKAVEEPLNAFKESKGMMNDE

On to Human IgG, for which the EC50 in experiment [1] stood at 0.992 pM; in experiment [2], 0.015 nM.

As a reminder, the EC50 is the midpoint of the concentration-response curve. A low value points to a more potent agent.
